Laboratory results: article PMC12146755

Experiments:
[1] = biological target: CD3ε (antigen of the surface plasmon resonance) (human) (UniProt P07766); assay: SPR; format and conditions not given in the main text (SI Appendix, Fig. S1 D-F)
Target sequence in this assay (P07766 23-207): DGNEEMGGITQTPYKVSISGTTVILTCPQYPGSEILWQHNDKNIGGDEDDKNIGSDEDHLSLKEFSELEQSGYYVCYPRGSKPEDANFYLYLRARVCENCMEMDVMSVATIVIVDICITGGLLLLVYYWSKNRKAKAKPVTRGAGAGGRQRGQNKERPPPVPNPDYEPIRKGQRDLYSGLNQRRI

[2] = biological target: CD3ε (antigen of the surface plasmon resonance) (human) (UniProt P07766); assay: SPR; conditions: bispecific antibody
Target sequence in this assay (P07766 23-126): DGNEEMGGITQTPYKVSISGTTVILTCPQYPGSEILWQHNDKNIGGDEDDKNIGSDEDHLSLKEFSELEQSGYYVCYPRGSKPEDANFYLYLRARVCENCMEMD

[3] = biological target: Her2 (antigen of the surface plasmon resonance) (human) (UniProt P04626); assay: SPR; conditions: bispecific antibody

Substance	Kd [1]	Kd [2]	Kd [3]
Bispecific T cell engager Format A (anti-Her2 x anti-CD3ε, IgG1-based) (bispecific antibody)	< 10 nM	–	–
Bispecific T cell engager Format A (anti-Her2 x anti-CD3ε, IgG1-based) (from UniProt P01857)	–	3.8 nM	0.156 nM
Bispecific T cell engager Format B (anti-Her2 x anti-CD3ε, IgG1-based) (bispecific antibody)	< 10 nM	–	–
Bispecific T cell engager Format C (anti-Her2 x anti-CD3ε, IgG1-based) (from UniProt P01857)	–	5.4 nM	0.086 nM

The next lines start with the values.

Kd [1]	Kd [2]	Kd [3]	Substance
–	4.2 nM	0.249 nM	Bispecific T cell engager Format B (anti-Her2 x anti-CD3ε, IgG1-based) (from UniProt P01857)
< 10 nM	–	–	Bispecific T cell engager Format C (anti-Her2 x anti-CD3ε, IgG1-based) (bispecific antibody)
